The series can be described thus: amyloid nucleation score (Sup35N fusion, yeast selection) (log enrichment); library NNK3; higher = more nucleation; inactive = no reads after selection. The method in brief:
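Three technical output replicates were used for random libraries. Psi-negative yeast expressing peptides of 20 random codons fused to Sup35N were induced with 100 μM copper sulfate for 24 hours and grown 7 days at 30°C on medium lacking adenine and uracil, and input and output plasmid inserts were Illumina-sequenced, excluding sequences with under 100 input reads. The nucleation score is the DiMSum log enrichment of output over input reads, centred on the mode score of non-aggregating sequences.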

± gives the uncertainty stated by the source.

Turning to ADVLTNRIGPCIKEGIKLGI, the amyloid nucleation score entry is “inactive”.
Take GSHICGALSSRDLFSGVLRI: the amyloid nucleation score entry is “inactive”.
As to EYGLNFSLNGYLSH, the amyloid nucleation score was determined as 0.601 ± 0.32.
With GGARMRFDQFMRHRATLASV, the amyloid nucleation score entry was “inactive”.
The same measure for MIYSHDHTYHSCLLDAVSCR: “inactive”.
As to TFTTFRWDEGVLLYLYERVG, the amyloid nucleation score entry was “inactive”.
As for SVERFIMPC, the entry is “inactive”; as for PSVHCMWCPRQPDVFPRWIV, “inactive”.
With RTPHELKFRCSFQKVWQGMV, the amyloid nucleation score entry was “inactive”.
RFYDYYTLQVRYMTLHATNG: the amyloid nucleation score entry is “inactive”.
As for YKNSGFNLFNRVGNWMGVKL, the entry is “inactive”; as for RSLNPWLYAVSLHYEQFVGV, “inactive”; as for CIWHLHLLFLEGVYV, “inactive”.
In the case of LAVYSSINFSRNGGSLTWTI, the amyloid nucleation score entry is “inactive”.
The same measure for NLAYTMRGTELICTYVSILP: “inactive”; for LFGGCLSLDDIVTDRLMTCF: “inactive”.
As for YLWEYSEMLSTDI, the entry is “inactive”; as for RKKTNCHINYFMDALFERLA, “inactive”; as for SVKLLSVTSCDGGRAWWQGG, “inactive”.
As for PLGDARLTSRRDPPYRTTPL, the figure is 0.979 ± 0.17; as for TRVSWTFGINTSSGPSALHL, 0.995 ± 0.13; as for LWPWFNCLRGRCGRIVCGWR, “inactive”.
NKLCYSSDLYWRVTDKDEHR: the amyloid nucleation score entry is “inactive”.
For the substance PYAILFNAWNLSAPMACSWV, the amyloid nucleation score entry is “inactive”.
Turning to CRHPTGKACELCELACFN, the amyloid nucleation score result is “inactive”.
As for STVRVWHCLFFFLIGVHNCC, the amyloid nucleation score result is “inactive”.
Consider HSRVWGKYSGSLPGKM, for which the amyloid nucleation score result is “inactive”.
Consider YQRLHSL, for which the amyloid nucleation score result was “inactive”.
With LGNGSLVIG, the amyloid nucleation score stood at 0.033 ± 0.27.
Take RLRYIGSILLLRRKVVFLMH: the amyloid nucleation score entry was “inactive”.
Regarding GFINKDVF, the amyloid nucleation score entry is “inactive”.
As for YPALINSVFITDAIGGPYCL, the entry is “inactive”; as for AHRQMGNFR, -0.701 ± 1.2; as for LFRFS, “inactive”.
As for IANCRIS, the figure is 1.34 ± 0.094; as for TCSHVYQTYAVKAASKNIMI, “inactive”; as for FPLDRGYSVTGDMRMPPAVR, “inactive”.
The same measure for DMGTYVSCRRIFKNGRYSGC: “inactive”.
Regarding NLTLVVHYISRQSISEHYLR, the amyloid nucleation score entry was “inactive”.
With QSLHSYNRSESCSLGSSFWI, the amyloid nucleation score entry is “inactive”.
As for FYYDYSLCPCYYVGDYEHES, the figure is 2.41 ± 0.056; as for TTEDLSVG, “inactive”.
As for RHVLQILLSKKRDATMLPNY, the entry is “inactive”; as for YDSRWLDGSACKNKVQFGCQ, “inactive”.
Turning to WWDTLIAGSLPKLTWNQKTG, the amyloid nucleation score result was “inactive”.
For the substance VLRSANCCCGFD, the amyloid nucleation score entry is “inactive”.
The same measure for CASCEVFMLR: “inactive”; for IEWVRNTLSISLIERYRLNG: “inactive”; for YIEYIWWRLSSWLRSMKGLR: “inactive”.
Regarding ICFFRGAARMNCLGYQGITR, the amyloid nucleation score entry was “inactive”.
Take VIMFVAIGWLLR: the amyloid nucleation score entry is “inactive”.
The same measure for RFHDNFAAK: “inactive”.
In the case of MKPSKGVDL, the amyloid nucleation score result was “inactive”.
